{"source": "the RNAGym collection of RNA variant scans (doi:10.1073/pnas.2313332121)", "parents": {"B1": {"name": "TPR 5TU (parent)", "chain": "GGAUCUUCUCGAUCUAACAAAAAAGACAAAUCUGCCACAAAGCUUGAGAGCAUCUUCGGAUGCAGAGGCGGCAGCCUUCGGUGGCGCGAUAGCGCCAACGUUCUCAACUAUGACACGCAAAACGCGUGCUCCGUUGAAUGGAGUUUAUCAUG"}}, "note": "Fewer inactive variants are shown than the library holds.", "data": [{"variants_of": "B1", "test": "polymerase ribozyme fitness, log enrichment relative to wild type (log ratio); higher = more active; in vitro selection for triplet polymerase activity", "procedure,_shortened": "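A heterodimeric triplet polymerase ribozyme had each of its subunits mutagenized by PCR into a library, which was transcribed. One round of in vitro selection, done in triplicate, annealed each library with a biotinylated primer, its partner subunit and triplets, then incubated it frozen at −7 °C before gel excision of extended constructs, streptavidin-bead capture and RT-PCR. Fitness is the logarithm of genotype enrichment relative to wild-type enrichment, based on Illumina sequencing of inputs and outputs and inverse-variance-weighted replicate averages. A base-2 logarithm is used, and genotypes were kept only with ≥10 input reads and ≥1 read per output.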", "values": [{"variant": "A30C A41C G67C G83U G88U G141A", "polymerase ribozyme fitness (log ratio)": "≤ -4.2"}, {"variant": "C103U A115G", "polymerase ribozyme fitness (log ratio)": -1.14}, {"variant": "G92A A115C", "polymerase ribozyme fitness (log ratio)": -3.48}, {"variant": "G46C A66C C85U C93G C118U", "polymerase ribozyme fitness (log ratio)": "≤ -4.2"}, {"variant": "A52C G81A G86U", "polymerase ribozyme fitness (log ratio)": -2.1}, {"variant": "G59A G84U A98G A115U", "polymerase ribozyme fitness (log ratio)": -3.58}, {"variant": "A17U A98G", "polymerase ribozyme fitness (log ratio)": -0.0344}, {"variant": "U53A G62A G86U", "polymerase ribozyme fitness (log ratio)": -2.24}, {"variant": "C76U C93G C132U", "polymerase ribozyme fitness (log ratio)": -3.96}, {"variant": "A37G C51U C72U C95A A138U G143U", "polymerase ribozyme fitness (log ratio)": "≤ -4.2"}, {"variant": "U31C G58A G94U G143U", "polymerase ribozyme fitness (log ratio)": -2.9}, {"variant": "U53A A107U", "polymerase ribozyme fitness (log ratio)": -2.93}, {"variant": "U7C G50U G140U", "polymerase ribozyme fitness (log ratio)": "≤ -4.2"}, {"variant": "U31G G62C G88C A119G", "polymerase ribozyme fitness (log ratio)": "≤ -4.2"}, {"variant": "A52U G83A U90C A106U U127A", "polymerase ribozyme fitness (log ratio)": "≤ -4.2"}, {"variant": "A16G A24U G46U C85G A106C U109A C114U C118G A120G", "polymerase ribozyme fitness (log ratio)": "≤ -4.2"}, {"variant": "C51G C87A C93G C105A A113U", "polymerase ribozyme fitness (log ratio)": "≤ -4.2"}, {"variant": "U13C A39C U56A C95U G124A", "polymerase ribozyme fitness (log ratio)": -3.63}, {"variant": "U53A C123U", "polymerase ribozyme fitness (log ratio)": -0.0861}, {"variant": "U7G G50C U56G G94C", "polymerase ribozyme fitness (log ratio)": "≤ -4.2"}, {"variant": "A19C A24G C36U C57A U111G A121G", "polymerase ribozyme fitness (log ratio)": "≤ -4.2"}, {"variant": "C38U G83U C123U U148C", "polymerase ribozyme fitness (log ratio)": -2.21}, {"variant": "A73U C85A", "polymerase ribozyme fitness (log ratio)": -2.44}, {"variant": "C75U C96A G128U", "polymerase ribozyme fitness (log ratio)": -3.56}, {"variant": "C8A G48A G92C", "polymerase ribozyme fitness (log ratio)": "≤ -4.2"}, {"variant": "U61C A98U C103G A115G C131U", "polymerase ribozyme fitness (log ratio)": "≤ -4.2"}, {"variant": "G84A C132G", "polymerase ribozyme fitness (log ratio)": -3.59}, {"variant": "G50U G58U G59U C76A", "polymerase ribozyme fitness (log ratio)": "≤ -4.2"}, {"variant": "C14U C27U U90C A91U C116G", "polymerase ribozyme fitness (log ratio)": -3.77}, {"variant": "G11A C38A A40G", "polymerase ribozyme fitness (log ratio)": -4.14}, {"variant": "A3C A23U U44A U45C C95U C105G A106C C123U A137G", "polymerase ribozyme fitness (log ratio)": "≤ -4.2"}, {"variant": "C51U G86A", "polymerase ribozyme fitness (log ratio)": -2.13}, {"variant": "A24C A28U A37U U134C", "polymerase ribozyme fitness (log ratio)": "≤ -4.2"}, {"variant": "C8A C18U A20G U45A G59C G62A C76U C114G", "polymerase ribozyme fitness (log ratio)": "≤ -4.2"}, {"variant": "C5G U56A G84U U144A", "polymerase ribozyme fitness (log ratio)": -3.4}, {"variant": "A20G A40C A41G A49C C76G G88A C96U", "polymerase ribozyme fitness (log ratio)": "≤ -4.2"}, {"variant": "A17C C57A C114U", "polymerase ribozyme fitness (log ratio)": -1.86}, {"variant": "A60U U78C A91U C116A G117U", "polymerase ribozyme fitness (log ratio)": "≤ -4.2"}, {"variant": "C8G C10U C51A G80C C95A U102G G124U A137C", "polymerase ribozyme fitness (log ratio)": "≤ -4.2"}, {"variant": "C85G A147U", "polymerase ribozyme fitness (log ratio)": -0.872}, {"variant": "A22G A41C G50A C95U U101G", "polymerase ribozyme fitness (log ratio)": -1.78}, {"variant": "G84U A115U", "polymerase ribozyme fitness (log ratio)": -3.4}, {"variant": "G11C A40C G84A A97U", "polymerase ribozyme fitness (log ratio)": -3.7}, {"variant": "G59U C75A C96G", "polymerase ribozyme fitness (log ratio)": "≤ -4.2"}, {"variant": "G70U A122C U144G", "polymerase ribozyme fitness (log ratio)": -2.06}, {"variant": "C5A C51U", "polymerase ribozyme fitness (log ratio)": -0.595}, {"variant": "A39U U77G G124C U135G U146A", "polymerase ribozyme fitness (log ratio)": "≤ -4.2"}, {"variant": "C75U G128U", "polymerase ribozyme fitness (log ratio)": -3.28}, {"variant": "U55G U56A G68A C96U", "polymerase ribozyme fitness (log ratio)": "≤ -4.2"}, {"variant": "U33G U44A G46C A73G C76A C95U G133U", "polymerase ribozyme fitness (log ratio)": "≤ -4.2"}, {"variant": "A17U C93U", "polymerase ribozyme fitness (log ratio)": -1.07}, {"variant": "U6G G50U C95U", "polymerase ribozyme fitness (log ratio)": 0.0133}, {"variant": "C32G G70C", "polymerase ribozyme fitness (log ratio)": "≤ -4.2"}, {"variant": "C95U C116A C129G U148G", "polymerase ribozyme fitness (log ratio)": "≤ -4.2"}, {"variant": "U13G G80C G94U U134A", "polymerase ribozyme fitness (log ratio)": "≤ -4.2"}, {"variant": "C5U A21G G59C C93G", "polymerase ribozyme fitness (log ratio)": -1.3}, {"variant": "A47C U53A G81A U104G", "polymerase ribozyme fitness (log ratio)": -1.12}, {"variant": "U6C A60G G117U", "polymerase ribozyme fitness (log ratio)": -1.75}, {"variant": "U55G G71U", "polymerase ribozyme fitness (log ratio)": -1.86}, {"variant": "C18G U56G C85U", "polymerase ribozyme fitness (log ratio)": -0.856}, {"variant": "C18U C93G", "polymerase ribozyme fitness (log ratio)": -3.19}, {"variant": "G62U", "polymerase ribozyme fitness (log ratio)": -0.546}, {"variant": "C75U C93U G143U", "polymerase ribozyme fitness (log ratio)": -3.61}, {"variant": "G68C C79A G83U U101A U104C C108G A142G", "polymerase ribozyme fitness (log ratio)": "≤ -4.2"}, {"variant": "U33A U56A U90A A122C U151G", "polymerase ribozyme fitness (log ratio)": "≤ -4.2"}, {"variant": "G124C U135A", "polymerase ribozyme fitness (log ratio)": -1.84}, {"variant": "G34C C76A C95U A142C", "polymerase ribozyme fitness (log ratio)": "≤ -4.2"}, {"variant": "A22U A47C C54G G58U", "polymerase ribozyme fitness (log ratio)": -0.551}, {"variant": "G25U C32U A40U U56A G80C C85A C87A C116G U146G A150U", "polymerase ribozyme fitness (log ratio)": "≤ -4.2"}, {"variant": "C5U A52U G67U C93U C96U A115C", "polymerase ribozyme fitness (log ratio)": "≤ -4.2"}, {"variant": "C51G C125U G141U", "polymerase ribozyme fitness (log ratio)": -3.54}, {"variant": "G59U G86A C118G", "polymerase ribozyme fitness (log ratio)": -2.48}, {"variant": "A23G C87U", "polymerase ribozyme fitness (log ratio)": -3.14}, {"variant": "A39G G80A G126U A138G", "polymerase ribozyme fitness (log ratio)": "≤ -4.2"}, {"variant": "C10U A22C G46A G50A C79G C85U C105U", "polymerase ribozyme fitness (log ratio)": "≤ -4.2"}, {"variant": "A52C U55A U56A G86C", "polymerase ribozyme fitness (log ratio)": -4.01}, {"variant": "C96A U144A", "polymerase ribozyme fitness (log ratio)": -0.177}, {"variant": "C14A A40C G92C G143A", "polymerase ribozyme fitness (log ratio)": "≤ -4.2"}, {"variant": "A20U C125A", "polymerase ribozyme fitness (log ratio)": -2.05}, {"variant": "C36U G81A C93G G136A", "polymerase ribozyme fitness (log ratio)": "≤ -4.2"}, {"variant": "C10U C18U U44G A60G G92A", "polymerase ribozyme fitness (log ratio)": "≤ -4.2"}, {"variant": "A49C G86U C96G C123U U146G", "polymerase ribozyme fitness (log ratio)": "≤ -4.2"}, {"variant": "A41U G83A A150U", "polymerase ribozyme fitness (log ratio)": -0.63}]}]}
